US20140356418A1

Legend:
[1] = molecular target: Aβ42 fibrils (immobilized Aβ(1-42) fibrils) (UniProt P05067); assay: SPR (Sensi Q), immobilized Aβ(1-42) fibrils, fit of a single curve; inset table row 2 (the row's concentration, 1 or 3 µM, is not given)
[2] = molecular target: Aβ42 fibrils (immobilized Aβ(1-42) fibrils) (UniProt P05067); assay: SPR (Sensi Q), immobilized Aβ(1-42) fibrils, fit of a single curve; (the concentration, 1 or 3 µM, is not given)
[3] = molecular target: Aβ42 fibrils (immobilized Aβ(1-42) fibrils) (UniProt P05067); assay: SPR, Aβ fibrils (summary of the Examples)
[4] = molecular target: Aβ42 fibrils (immobilized Aβ(1-42) fibrils) (UniProt P05067); assay: SPR, Aβ42 fibrils immobilized, Langmuir 1:1 fit
[5] = molecular target: Aβ42 fibrils (immobilized Aβ(1-42) fibrils) (UniProt P05067); assay: SPR, Aβ42 fibrils immobilized, Langmuir 1:1 fit, curves fitted separately; upper end of the range from curves fitted separately (1, 3, 6 µM RI-OR2-TAT)
[6] = molecular target: Aβ42 fibrils (immobilized Aβ(1-42) fibrils) (UniProt P05067); assay: SPR, Aβ42 fibrils immobilized, Langmuir 1:1 fit, curves fitted separately; lower end of the range from curves fitted separately (1, 3, 6 µM RI-OR2-TAT)

Sequence of Aβ42 fibrils (immobilized Aβ(1-42) fibrils) (P05067 672-713 limits assumed): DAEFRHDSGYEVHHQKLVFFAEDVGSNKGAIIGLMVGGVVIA

Row | Substance | Kd [1] | koff [1] | kon [1] | Kd [2] | koff [2] | kon [2] | Kd [3] | koff [4] | kon [4] | Kd [5] | Kd [6]
1 | PINPs (Peptide Inhibitor NanoParticles): RI-OR2-TAT covalently attached to nanoliposomes | 44.7 nM | 5.31e-05 s⁻¹ | 1190 M⁻¹ s⁻¹ | 14.8 nM | 6.71e-05 s⁻¹ | 4520 M⁻¹ s⁻¹ | 14 to 44 nM |  |  |  | 
2 | RI-OR2-TAT (Ac-rGffvlkGrrrrqrrkkrGy-NH2) (peptide) | 41.5 nM | 0.000994 s⁻¹ | 23900 M⁻¹ s⁻¹ | 75.6 nM | 0.00096 s⁻¹ | 12700 M⁻¹ s⁻¹ | 41 to 75 nM | 0.00037 s⁻¹ | 3680 M⁻¹ s⁻¹ | 58 to 125 nM | 58 to 125 nM
